Test results reported in patent US7238786B2, “Monoclonal antibody cPAM4” (Immunomedics, Inc., priority 2002, dated 2007).

Tested on: PAM4 antigen
Experiment: Competition with ^131I-mPAM4 binding to the antigen (FIG. 3)
Settings: competing with ^131I-mPAM4 binding to the antigen
Description: A chimeric antibody is a recombinant protein that contains the variable domains including the complementarity determining regions (CDRs) of an antibody derived from one species while the constant domains of the antibody molecule is derived from those of a human antibody.

B1: cPAM4: chimeric PAM4: murine PAM4 variable domains with human light and heavy chain constant regions (antibody, V domains shown)
VL: DIQLTQSPAIMSASPGEKVTMTCSASSSVSSSYLYWYQQKPGSSPKLWIYSTSNLASGVPARFSGSGSGTSYSLTISSMEAEDAASYFCHQWNRYPYTFGGGTKLEIKR
VH: QVQLQESGPELVKPGASVKMSCKASGYTFPSYVLHWVKQKPGQGLEWIGYINPYNDGTQYNEKFKGKATLTSDKSSSTAYMELSRLTSEDSAVYYCARGFGGSYGFAYWGQGTLITVSA
binding activity compared to murine PAM4: comparable binding activity
